Results reported in patent US20240424115A1, “LONG-ACTING INTERLEUKIN-15 RECEPTOR AGONISTS AND RELATED IMMUNOTHERAPEUTIC COMPOSITIONS AND METHODS” (Nektar Therapeutics, priority 2017, published 2024).
“And” between values parts separate entries of the source, which are not always exact repeats. Equal values may be shown once. Read-outs that look alike come from different tables or passages of the source.

Experiments:
[1] = Single dose PK study in non-human primates (plasma concentration); format: in vivo; conditions: cynomolgus monkeys
Method: Cynomolgus monkeys (n=2, 1 male and 1 female), were administered a single intravenous dose of Conjugate 1 at 10, 50 and 100 μg/kg. IL-15 was administered as a single intravenous dose at 50 μg/kg as a control. Plasma concentration of drug was determined at the indicated time points post injection (0.03, 0.25, 1, 4, 12, 24, 48, 72, 96, 120, 144, 168 hours).

CD4, CD8, and NK cells = assay: In vivo IL-15 signaling (STAT5 phosphorylation in lymphocytes) in mice
Excerpt: Conventional approaches, such as those involving radiolabeling a compound, administering the compound in vivo, and determining its clearance, can be used to assess whether a compound proposed to be a long-acting, IL-15 R agonist is “long-acting” (i.e., has a clearance that is longer than that of IL-15 administered in the same in vivo system). For the purposes herein, the long acting nature of a long-acting IL-15 R agonist may be, and is typically determined using flow cytometry to measure STAT5 phosphorylation in lymphocytes at various time points after administration of the agonist to be evaluated in mice. As a reference, the signal is lost by around 24 hours with IL-15, but is sustained for a period greater than that for a long-acting IL-15 agonist.
Mice were dosed as described in Example 6 above to assess in-vivo signaling as assessed by degree of STAT5 phosphorylation. Degree of STAT5 phosphorylation in various lymphocytes (CD4, CD8, and NK cells) was assessed by staining whole blood for leukocyte surface markers and pSTAT5, followed by measurement by flow cytometry. Results are shown in FIGS. 8A and 8 B for IL-15 and for Conjugate 2, respectively.
[PK methods previously described herein].
STAT5 phosphorylation in CD4 T cells was determined by using a CD3+CD4+CD8-pSTAT5+ marker combination. FIG. 43 is a plot of pSTAT5 phosphorylation percent positivity within CD4 T cells over time (at 0.25, 1, 6, 24, 48, 72, 96 and 120 hours post administration) at a dose of 0.03 mg/kg (blue, solid squares) or 0.3 mg/kg (orange, solid circles). The vehicle over time (black) and pre-dose (open circles) levels are also shown.

CTLL-2 cells = assay: Potency assay based on STAT5 phosphorylation in CTLL-2 cells; format: cell-based, murine; conditions: for EC50 (ng/mL) CTLL-2 pSTAT5: Table 2B
Method: In the phospho-STAT5 assay following receptor binding, downstream cell signaling can then activate Signal Transducer and Activator of Transcription 5 (STAT5) through phosphorylation to promote gene expression to induce cell proliferation. The activation of phosho-STAT5 is measured in CTLL-2 cells, a murine T lymphocyte cell line, using the phospho-STAT5/total STAT5 multiplexed assay (Meso Scale Discovery, MD) in response to sample and reference treatment for ˜10 minutes.
One day prior to the assay, CTLL-2 cells were split into fresh growth medium [RPMI 1640 supplemented with 10% FBS, 10% T-cell culture supplement (catalog #354115, Corning, Inc., Tewksbury, MA), 2 mM L-glutamate, and 1 mM sodium pyruvate]. On the day of assay, cells were pre-incubated in assay medium (RPMI 1640 supplemented with 1% FBS, 2 mM L-glutamate, and 1 mM sodium pyruvate) for at least four hours, and then plated in assay medium in a 96-well plate at 50,000 cells/well. Dilutions of the test article were prepared in an appropriate buffer immediately prior to assay. Stimulation of CTLL-2 cells was initiated by the transfer of 25X test article solutions to triplicate wells containing CTLL-2 cells. Plates were incubated at 37° C., 5% CO2 for 10 minutes, and the reaction was stopped by cell lysis. Detection of phospho-STAT5 and total STAT5 protein levels in cell lysates was performed using the MSD Phospho (Tyr694)/Total STATa,b Whole Cell Lysate Kit (Meso Scale Discovery, MD).

IL-15Rα = IL-15Rα (Homo sapiens, UniProt Q13261); assay: Receptor affinity for IL-15Rα by surface plasmon resonance (BIAcore); format: binding; conditions: for ka: IL-15Rα:Fc captured by anti-Fc
Method: The affinities of IL-15 and exemplary long acting rIL-15 receptor agonists were measured using Surface Plasmon Resonance (“SPR”) using a BIAcore™ SPR system. Briefly, the surface of a Biacore CM5 sensor chip was activated using a 1:1 mixture of NHS: EDC to generate active NHS esters. Goat anti-human Fc antibody was covalently attached to the surface by injecting it for five minutes in 10 mM sodium acetate (pH 4). There were approximately 8000 RU of antibodies bound to the surface. Any remaining NHS ester was then quenched with ethanolamine.
At the initiation of each injection cycle, IL-15-Rα-Fc was captured on a sensor chip channel by a five-minute injection step in PBSP. Typically, 150-200 RU of receptors were bound on the surface.
(§1) Long acting rIL-15 receptor agonist test articles were diluted to 10 µM in PBS (containing 0.05% Tween 20 and 0.1 mg/ml BSA). A series of 3-fold dilutions were made and injected onto a sensor chip which was coated with IL-15Rα. The affinities were measured by determining the ka and kd rates separately, and the ratio between kd and ka was used to calculate the Kd values.
The affinities of exemplary long-acting IL-15 receptor agonists (test articles) for the IL-15 α receptor were measured and compared to IL-15. Affinity was measured by BIAcore using IL-15Rα:Fc captured by immobilized anti-Fc.
as §1, with “The” for “Long acting rIL-15 receptor agonist”, “μM” for “µM”, “between ka and” for “between”, “kd” for “kd and ka”, “[…]” for “Kd”

IL-15Rα, sequence (Q13261 31-205 limits assumed): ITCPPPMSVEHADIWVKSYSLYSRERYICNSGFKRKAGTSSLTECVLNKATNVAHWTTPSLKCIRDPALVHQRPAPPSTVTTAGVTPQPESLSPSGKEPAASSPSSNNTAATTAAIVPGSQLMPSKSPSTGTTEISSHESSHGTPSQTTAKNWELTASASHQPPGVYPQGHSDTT

With “IL-15: recombinant human IL-15 from E. coli, SEQ ID NO: 1, non-glycosylated, 12.9 kDa; unconjugated comparator” the “plasma levels following administration” value ([1]; single i.v. 50 μg/kg) was “rapidly cleared from the plasma”, the “duration of in-vivo STAT5 phosphorylation activity in NK and CD8 cells” value (CD4, CD8, and NK cells; C57BL/6 mice, single i.v. 0.3 mg/kg) was “extremely short-lived” and the “time by which the STAT5 phosphorylation signal in lymphocytes is lost” value (CD4, CD8, and NK cells; mice, reference) was “around 24 hours”. For the same substance, the “EC50 (ng/mL) CTLL-2 pSTAT5” value (CTLL-2 cells) was 0.27 ng/mL, the ka (IL-15Rα; Table 2A) was 578000 M⁻¹ s⁻¹ and the “dissociation rate constant (kd)” value (IL-15Rα; Table 2A) was 0.000149 s⁻¹. It also gave a Kd (IL-15Rα; Table 2A, read-out: KD) of 258 pM and a Kd (IL-15Rα; Table 2B, read-out: IL-15Rα KD) of 258 pM.

For mono-mPEG-SBA40K-IL-15 [Conjugate 1], the half-life ([1]; single i.v. 100 μg/kg) was “approximately 30 hours”, the “pSTAT5 expression in CD4 T cells” value (CD4, CD8, and NK cells; Balb/c mice, single i.v. 0.03 or 0.3 mg/kg, compared to CD8 and NK cells) was “relatively less increase in pSTAT5 expression” and the “pSTAT5 percent positivity within NK cells” value (CD4, CD8, and NK cells; balb/c mice, single injection 0.03 and 0.3 mg/kg) was “induces robust and sustained pSTAT5 signaling in NK cells”. The “pSTAT5 percent positivity within CD8 T cells” value (CD4, CD8, and NK cells; balb/c mice, single injection 0.03 and 0.3 mg/kg, 120 h) was “induces sustained pSTAT5signaling in CD8 T cells”, the “reduction in potency when compared to IL-15” value (CTLL-2 cells; EC50 CTLL-2 pSTAT5) was “two-fold” and the “EC50 (ng/mL) CTLL-2 pSTAT5” value (CTLL-2 cells) was 0.62 ng/mL. For the same substance, the ka (IL-15Rα; Table 2A) was 492000 M⁻¹ s⁻¹, the “dissociation rate constant (kd)” value (IL-15Rα; Table 2A) was 0.000103 s⁻¹ and the Kd (IL-15Rα; Table 2A, read-out: KD) was 209 pM. The Kd (IL-15Rα; Table 2B, read-out: IL-15Rα KD) was 201 pM and 209 pM and the “alpha receptor affinity of IL-15 retained” value (IL-15Rα; compared to IL-15) was “about 80%”.
